Residue numbers refer to the chain shown, from its start. Numbers in names are those of the source.

The chains are these.
T1: EsCas13d, nuclease-dead (Eubacterium siraeum, UniProt B0MS50, R295A;H300A;R849A;H854A)
T1 sequence: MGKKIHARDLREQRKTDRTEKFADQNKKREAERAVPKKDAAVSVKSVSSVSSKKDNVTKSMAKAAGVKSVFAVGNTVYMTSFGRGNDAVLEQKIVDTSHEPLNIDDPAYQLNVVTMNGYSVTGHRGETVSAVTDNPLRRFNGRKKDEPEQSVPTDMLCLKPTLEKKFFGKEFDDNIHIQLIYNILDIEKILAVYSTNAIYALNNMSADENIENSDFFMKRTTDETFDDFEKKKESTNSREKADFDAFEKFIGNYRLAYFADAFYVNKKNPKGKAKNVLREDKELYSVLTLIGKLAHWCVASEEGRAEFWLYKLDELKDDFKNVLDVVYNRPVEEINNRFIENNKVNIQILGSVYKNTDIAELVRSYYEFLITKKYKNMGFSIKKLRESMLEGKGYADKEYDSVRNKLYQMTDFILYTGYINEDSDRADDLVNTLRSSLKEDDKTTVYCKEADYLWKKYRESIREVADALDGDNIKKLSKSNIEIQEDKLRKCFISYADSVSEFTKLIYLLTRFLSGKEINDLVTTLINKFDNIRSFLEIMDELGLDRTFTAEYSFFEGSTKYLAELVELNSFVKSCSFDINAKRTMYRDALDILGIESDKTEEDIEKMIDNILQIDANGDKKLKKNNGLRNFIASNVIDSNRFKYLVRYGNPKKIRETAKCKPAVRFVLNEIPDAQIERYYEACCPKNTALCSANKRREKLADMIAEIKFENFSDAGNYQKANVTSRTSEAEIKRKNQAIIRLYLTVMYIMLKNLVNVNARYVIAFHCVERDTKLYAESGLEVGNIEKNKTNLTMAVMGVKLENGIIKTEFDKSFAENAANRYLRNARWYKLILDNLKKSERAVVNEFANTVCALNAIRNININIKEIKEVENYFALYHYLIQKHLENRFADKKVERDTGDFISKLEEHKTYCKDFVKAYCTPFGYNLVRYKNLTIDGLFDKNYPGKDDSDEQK

B1: target 1 insG 3' of 21,insA 3' of 2 (mixed)
RNA 1: CACCCGUGCAAAAAUGCAGGGGUCUAAAACUGAGCGGAUAACCUCUCUAUGG
RNA 2: GGGAAUGGAUCCACAUCUACGAAUUCGUACCGAUAGAGAGGUUAUCCGCUCAACCGAGAUCGGAAGAGCACACGU
B2: target 1 insC 3' of 22,insU 3' of 6 (mixed)
RNA 1: B1 RNA 1
RNA 2: B1 RNA 2 with G32C, G48U, C49G, U50C, C51U, A52C
B3: target 1 insG 3' of 21,insG 3' of 1 (mixed)
RNA 1: B1 RNA 1
RNA 2: B1 RNA 2 with A53G
B4: target 3 C1G,U21A (mixed)
RNA 1: CACCCGUGCAAAAUUGCAGGGGUCUAAAACGACCUGAAUAUUUCAGAUCAAA
RNA 2: GGGAAUGGAUCCACAUCUACGAAUUCGUUUAUGAUCUGAAAUAUUCAGGUGUGCAGAUCGGAAGAGCACACGU
B5: target 3 insG 3' of 7,insA 3' of 2 (mixed)
RNA 1: B4 RNA 1
RNA 2: GGGAAUGGAUCCACAUCUACGAAUUCGUUUUUGAUCUGAAAUAUUGCAGGUACUGCAGAUCGGAAGAGCACACGU
B6: target 3 insA 3' of 22,insA 3' of 8 (mixed)
RNA 1: B4 RNA 1
RNA 2: GGGAAUGGAUCCACAUCUACGAAUUCGUUUAUUGAUCUGAAAUAUAUCAGGUCUGCAGAUCGGAAGAGCACACGU
B7: target 3 U2A,U8G (mixed)
RNA 1: B4 RNA 1
RNA 2: B4 RNA 2 with A31U, U44G, U50A, G51C
B8: target 3 insG 3' of 6,insU 3' of 4 (mixed)
RNA 1: B4 RNA 1
RNA 2: B5 RNA 2 with G46C, C47G, G50U, U51G, A52U
B9: target 3 C1A,A11G (mixed)
RNA 1: B4 RNA 1
RNA 2: B4 RNA 2 with A31U, A41G, G51A
B10: target 3 insG 3' of 22,insU 3' of 3 (mixed)
RNA 1: B4 RNA 1
RNA 2: B6 RNA 2 with A31G, A46U, U47C, C48A, A49G, G51U
B11: target 3 insC 3' of 5 (mixed)
RNA 1: B4 RNA 1
RNA 2: GGGAAUGGAUCCACAUCUACGAAUUCGUUUUUGAUCUGAAAUAUUCACGGUCUGCAGAUCGGAAGAGCACACGU
B12: target 3 insG 3' of 9,insC 3' of 3 (mixed)
RNA 1: B4 RNA 1
RNA 2: B5 RNA 2 with U44G, G46U, U51C, A52U
B13: target 3 G3A,G4C (mixed)
RNA 1: B4 RNA 1
RNA 2: B4 RNA 2 with A31U, G48C, G49A, G51C
B14: target 3 C1U,C6A (mixed)
RNA 1: B4 RNA 1
RNA 2: B4 RNA 2 with A31U, C46A, G51U
B15: target 3 insC 3' of 22,insG 3' of 5 (mixed)
RNA 1: B4 RNA 1
RNA 2: B6 RNA 2 with A31C, A46U, U47C, C48A, A49G
B16: target 3 insA 3' of 20,insU 3' of 19 (mixed)
RNA 1: B4 RNA 1
RNA 2: GGGAAUGGAUCCACAUCUACGAAUUCGUUUUUAGUAUCUGAAAUAUUCAGGUCUGCAGAUCGGAAGAGCACACGU
B17: target 3 C1U,A5U (mixed)
RNA 1: B4 RNA 1
RNA 2: B4 RNA 2 with A31U, A47U, G51U
B18: target 3 insU 3' of 4,insU 3' of 4 (mixed)
RNA 1: B4 RNA 1
RNA 2: B5 RNA 2 with G46C, C47A, A48G, G49U, G50U, U51G, A52U
B19: target 3 G3C,G4A (mixed)
RNA 1: B4 RNA 1
RNA 2: B4 RNA 2 with A31U, G48A, G49C, G51C
B20: target 3 insC 3' of 18,insC 3' of 11 (mixed)
RNA 1: B4 RNA 1
RNA 2: B6 RNA 2 with A31U, U33G, G34A, A35C, U43C, A44U, U45A, A46U
B21: target 3 A13G,U22A (mixed)
RNA 1: B4 RNA 1
RNA 2: B4 RNA 2 with U30A, A31U, A39G, G51C
B22: target 3 A5U (mixed)
RNA 1: B4 RNA 1
RNA 2: B4 RNA 2 with A31U, A47U, G51C
B23: target 3 C1U,A11G (mixed)
RNA 1: B4 RNA 1
RNA 2: B4 RNA 2 with A31U, A41G, G51U
B24: target 3 U10C (mixed)
RNA 1: B4 RNA 1
RNA 2: B4 RNA 2 with A31U, U42C, G51C
B25: target 3 G4A,U22G (mixed)
RNA 1: B4 RNA 1
RNA 2: B4 RNA 2 with U30G, A31U, G48A, G51C
B26: target 3 U21G,U22A (mixed)
RNA 1: B4 RNA 1
RNA 2: B4 RNA 2 with U30A, A31G, G51C
B27: target 3 C1A,A5U (mixed)
RNA 1: B4 RNA 1
RNA 2: B4 RNA 2 with A31U, A47U, G51A
B28: target 3 insU 3' of 6,insG 3' of 6 (mixed)
RNA 1: B4 RNA 1
RNA 2: B5 RNA 2 with G46C, C47U, A48G, G49A, U51G, A52U
B29: target 3 del2,del8 (mixed)
RNA 1: B4 RNA 1
RNA 2: GGGAAUGGAUCCACAUCUACGAAUUCGUUUUUGAUCUGAAAUAUCAGGCUGCAGAUCGGAAGAGCACACGU
B30: target 3 insA 3' of 6,insA 3' of 3 (mixed)
RNA 1: B4 RNA 1
RNA 2: B5 RNA 2 with G46C, C47A, U51A, A52U
B31: target 3 A12G (mixed)
RNA 1: B4 RNA 1
RNA 2: B4 RNA 2 with A31U, A40G, G51C

This data set has as its target T1, EsCas13d, nuclease-dead. Briefly: crRNA (strand 1, pre-loaded); Mg2+; 40 mM Tris-HCl pH 7.5, 150 mM NaCl, 6 mM MgCl2, 1 mM DTT, 0.1% Tween-20, 0.2 mg/ml BSA; 25 C; 10 min per concentration, then washed. The conditions noted are these: tags: His6-TwinStrep-SUMO cleaved; N-terminal SNAP kept (SNAP-Surface 488); label: 3' end held by stalled T7 RNA polymerase.
A word on the Kd: it is the equilibrium constant for the complex coming apart. Higher therefore signals weaker binding. In turn, B1 had a Kd of 54 ± 13 nM. The figure for B2 is 20 ± 2 nM; for B3 it is 66 ± 10 nM; for B4 it is 44.5 ± 10.5 nM. B5 showed a Kd of 32.5 ± 5.75 nM. B6 came in with a dissociation constant (Kd) of 98.5 ± 35.5 nM. In turn, B7 came in with a Kd of 29.8 ± 3.4 nM.

Turning to B8, the Kd stood at 11.3 ± 1.2 nM. For B9, the affinity, expressed as Kd, was 41 ± 14.5 nM. For the molecule B10, the equilibrium dissociation constant (Kd) stood at 68 ± 26 nM. The molecule B11 returned a Kd of 19.2 ± 1.75 nM. The molecule B12 showed a Kd of 42 ± 7 nM. Then B13, with 9.25 ± 0.85 nM; and B14, with 59 ± 21 nM. On to B15, for which binding was characterised by a dissociation constant (Kd) of 93.5 ± 26 nM. B16 had a Kd of 62.5 ± 14.5 nM.

In turn, B17 showed a Kd of 12.9 ± 3.05 nM. Then B18, with 14.5 ± 1.2 nM; and B19, with 6.6 ± 0.65 nM; and B20, with 37 ± 5 nM. Molecule B21 registered a Kd of 43 ± 15 nM. Molecule B22 registered a Kd of 65.5 ± 14.5 nM. On to B23, for which the Kd stood at 55.5 ± 13 nM.

Take B24: the equilibrium dissociation constant (Kd) stood at 88 ± 22 nM. As to B25, binding was put at a Kd of 56.5 ± 9 nM. In turn, B26 came in with a Kd of 57.5 ± 15.5 nM.

Turning to B27, the equilibrium dissociation constant (Kd) came to 5.9 ± 1 nM. As to B28, the Kd was found to be 8.7 ± 0.95 nM. The figure for B29 is 47 ± 8.5 nM; for B30 it is 6.15 ± 0.6 nM.

B31 came in with a Kd of 43 ± 7.5 nM.
